Test [1] addresses T1, purified bovine vascular ANP receptor protein (Bos taurus, UniProt P10730).
T1 construct: mature receptor protein is a 496 amino acid polypeptide, expressed as a propeptide; endogenous in cells; host or cells: bovine aortic smooth muscle (BASM) cells, cultured
T1 sequence (P10730 42-537): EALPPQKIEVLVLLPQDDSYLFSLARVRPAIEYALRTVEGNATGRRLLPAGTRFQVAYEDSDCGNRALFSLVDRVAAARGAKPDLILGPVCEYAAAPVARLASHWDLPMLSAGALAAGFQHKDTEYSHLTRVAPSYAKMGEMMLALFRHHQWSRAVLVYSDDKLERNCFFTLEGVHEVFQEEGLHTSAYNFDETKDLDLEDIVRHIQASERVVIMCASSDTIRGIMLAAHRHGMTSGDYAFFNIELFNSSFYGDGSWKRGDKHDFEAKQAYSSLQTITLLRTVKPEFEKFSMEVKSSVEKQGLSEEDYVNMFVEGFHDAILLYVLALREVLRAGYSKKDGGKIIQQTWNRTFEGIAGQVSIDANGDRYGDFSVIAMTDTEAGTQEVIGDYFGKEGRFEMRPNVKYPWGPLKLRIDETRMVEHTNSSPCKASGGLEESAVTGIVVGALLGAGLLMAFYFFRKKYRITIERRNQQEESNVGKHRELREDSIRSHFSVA
The test can be described thus: Competitive binding of 125I-ANP(4-28) against ANP peptides to purified ANP receptor protein. As to conditions: for relative Ki value: purified bovine receptor, competition with 125I-ANP(4-28). The protocol:
To characterize the purified native bovine vascular ANP receptor protein further, its activity as a receptor in vitro was studied. The following ANP peptides, described in Schenk et al. (II), supra, were employed; ANP(4-28), ANP(7-28), and ANP(5-25). Bmax, Ki and Kd were calculated by standard methods. See, e.g., Scatchard (1949) Ann. N.Y. Acad. Sci., pp. 600-672. […] This corresponds to a stoichiometry of ANP to receptor protein of 1:3/subunit, or 0.7:1/holoreceptor.
An affinity matrix was made by coupling 40 mg human ANP(4-28) to 4 ml of Affi-gel 10 (Bio-Rad) as described by the manufacturer. Solubilized ANP receptor was adjusted to 10 mM CaCl2 and MgCl2 and filtered through […] (type GE, Millipore). The filtrate was chromatographed on the ANP-agarose column at a flow rate of 0.5 ml/min at 21° C. The column was washed with binding buffer (100 mM Tris HCl, pH 7.50; 100 mM NaCl; 4 mg/ml C12 E8; 10 mM CaCl2; and 10 mM MgCl2) until the effluent reached A280 =0.000. Then 6.0 ml of elution buffer (10 mM Na acetate, pH 5.00:100 mM NaCl; 4 mg/ml C12 E8; 10 mM CaCl2; 10 mM MgCl2) was added and the eluent was placed on ice and immediately adjusted to 37% (v/v) acetone. The solution was centrifuged at 4,000×g for 10 min at 4° C. and thoroughly aspirated. The pellet was resuspended in 3.0 ml of binding buffer and analyzed for purity, receptor binding activity, and amino acid sequence.
The tested ANP peptide included hANP(4-28), hANP(7-28) and atriopeptin I. Gamma-melanocyte stimulating hormone ([…]) was employed as a negative control. […] This corresponds to a stoichiometry of ANP to receptor protein of 1:3 kd subunit, or 0.7:1.0/holoreceptor.
Additional studies were conducted with ANP peptides.

For test [2], the target named is T2, ANP receptor (pANPRc-1/4) expressed in Xenopus oocytes (Bos taurus, UniProt P10730).
T2 construct: contains a 2290 base pair DNA insert which includes the entire open reading frame; expressed in transfected cells; host or cells: Xenopus oocytes injected with synthetic RNA from pANPRc-1/4; solubilized crude membranes
T2 sequence (P10730 42-537): T1 sequence (P10730 42-537)
The test is described as follows: ANP binding to recombinant ANP receptor (pANPRc-1/4) in solubilized membranes of mRNA-injected Xenopus oocytes. Further details: species or system bovine. The protocol: The receptor coding sequence from pANPRc-1/4 was cloned into pGEM1 (ProMega, Madison, Wis.) and RNA prepared according to the supplier's instructions. Oocyte preparation and injection were performed essentially as described, Gurdon et al. (1983) Meth. Enzymol. 101:370-386. Typically, each oocyte was injected with 50 nl 50 ng synthetic RNA followed by incubation in modified Barth's saline at 21° C. for 48 hr. Crude membranes were prepared and solubilized in receptor binding buffer (2 mg/ml C12 E8, 100 mM NaCl, 10 mM MgCl2, 10 mM CaCl2 and 100 mM Tris:HCl; pH 7.5). Binding was measured after incubating 0.5 ml of membrane suspension containing 10 μg protein with 2×10^5 cpm of ^125 I! […] (1×10^3 cpm/fmol) and the indicated concentration of unlabeled ANP analog for 30 min at 21° C. Reactions were terminated and free peptide separated from bound by precipitation with acetone (40% v/v final). Counts bound in the absence of unlabeled ligand were 2048±374 cpm while nonspecific binding (counts bound in the presence of 20 nM rANP) were 592±89 cpm.
Only low level, nonspecific binding was detected in membranes of uninfected, or mock injected eggs. […] Both […] and the truncated analog […] for binding. The Ii apparent obtained from the experiment was 0.27 nM for both analogs.

Ends that are not written are not given here.

Turning to “ANP(4-28): ANP peptide described in Schenk et al. (II) (RSSCFGGRMDRIGAQSGLGCNSFRY; ends and bridges not checked; cysteine pairing not given here; UniProt P01160 127-151, looked up, fragment)”, the “Bmax for receptor binding” value in test [1] (computer analysis of binding data, b45 adds '75% receptor activity') worked out at 5.7 nmol/mg protein. Also, the affinity in test [1] (computer analysis of binding data, purified receptor), expressed as Kd, was 0.3 nM. The “relative Ki value” in test [1] came out at 0.3 nM.
Consider “ANP(5-25): ANP peptide described in Schenk et al. (II) (SSCFGGRMDRIGAQSGLGCNS; ends and bridges not checked; cysteine pairing not given here; UniProt P01160 128-148, looked up, fragment)”, for which the “relative Ki value” in test [1] turned out to be 1.12 nM.
Turning to “ANP(7-28): ANP peptide described in Schenk et al. (II) (CFGGRMDRIGAQSGLGCNSFRY; ends and bridges not checked; cysteine pairing not given here; UniProt P01160 130-151, looked up, fragment)”, in test [1], the “relative Ki value” is recorded as 1.1 nM.
Turning to “Bombesin: bombesin, an unrelated tetradecapeptide (Peninsula Labs)”, the “effect on binding of radiolabeled ANP” value in test [2] (even at 100 μM) is “no effect on binding”. Moreover, the competition for binding entry in test [2] (solubilized oocyte membranes) is given as “did not compete for binding”.

The values above are taken from patent US5512455A, “Atrial natriuretic peptide receptor protein” (Scios Nova, Inc., priority 1987, dated 1996).
